In test [1] the test system is HCC70 clusters. The test can be described thus: Tail vein lung metastasis assay of IFNγ pre-treated HCC70 clusters in NSG mice. The class given is in vivo. Particulars: clusters pre-treated 6 days at 2 ng/mL, 3 weeks. The text has this:
(§1) FIG. 7A is a qPCR measurement of EPGN expression in HCC70 clusters. n=3 biological replicates. P-values=unpaired t-tests. […] P-values=unpaired t-tests. FIG. 7C is a quantification of individual lung metastasis areas (lungs three weeks after tail vein injection of 200,000 Ctrl-kd or Epgn-kd HCC70 clustered cells). n (# of metastases): Ctrl-kd=299, Epgn-kd=87. n (# of mice): 7 per condition. Box plot=5-95%. P-value=Mann-Whitney test. […] Line=non-linear regression. Band=95% CI. n=3 biological replicates. P-value=extra sum-of-squares F test. […] P-value=Mann-Whitney test. FIG. 7F is a quantification of internal FITC-streptavidin intensity biotin leak-in assay of HCC70 clusters after 6 days of treatment with or without 3 ng/mL IFNγ). n=60 untreated clusters, 70 IFNγ treated clusters. n=3 biological replicates. P-value=Mann-Whitney test. […] 3 weeks later, lung metastases were scored by staining for the human-specific marker CD298. […]
For single cell vs. cluster experiments, mTomato-PyMT organoids were dissociated to single cells at day 0 using Accumax (20 minutes at 37° C.). […] DIC images were taken before injection and assessed to ensure similar number and size of clusters injected between conditions. 3 weeks after tail vein injection mice were euthanized and lungs imaged under a dissecting microscope for quantification of fluorescent (metastatic) area. […]

The test system of test [2] is HCC70 clusters. The test can be described thus: qPCR of RAB25 and CLDN7 in HCC70 clusters. The class given is cell-based, human. Particulars: 3 ng/mL. The text has this:
(§2) FIG. 7A is a qPCR measurement of EPGN expression in HCC70 clusters. n=3 biological replicates. P-values=unpaired t-tests. […] P-values=unpaired t-tests. FIG. 7C is a quantification of individual lung metastasis areas (lungs three weeks after tail vein injection of 200,000 Ctrl-kd or Epgn-kd HCC70 clustered cells). n (# of metastases): Ctrl-kd=299, Epgn-kd=87. n (# of mice): 7 per condition. Box plot=5-95%. P-value=Mann-Whitney test. […] Line=non-linear regression. Band=95% CI. n=3 biological replicates. P-value=extra sum-of-squares F test. […] P-value=Mann-Whitney test. FIG. 7F is a quantification of internal FITC-streptavidin intensity biotin leak-in assay of HCC70 clusters after 6 days of treatment with or without 3 ng/mL IFNγ). n=60 untreated clusters, 70 IFNγ treated clusters. n=3 biological replicates. P-value=Mann-Whitney test. FIG. 7G is a TEM of HCC70 clusters after 6 days with and without IFNγ treatment (3 ng/mL). MP=microvilli-like protrusions. J=cell-cell junctions. FIG. 7H is a qPCR of (left) RAB25 and (right) CLDN7 in HCC70 clusters after 0, 3, and 6 days with and without 3 ng/mL IFNγ treatment. n=3 biological replicates. P-value=unpaired t-test. […] 3 weeks later, lung metastases were scored by staining for the human-specific marker CD298. […]
Human or mouse tumor cell clusters were pelleted and snap frozen in liquid nitrogen. […] Data were analyzed using the ΔΔCt method.
(Quantitative PCR measures a nucleic acid by following its amplification.)

The subject of test [3] is HCC70 clusters. The test can be described thus: pHH3 immunofluorescence (mitotic cells) and cell death in HCC70 clusters. The class given is cell-based, human.
The subject of test [4] is HCC70 tumor cell clusters. The test can be described thus: Viable cell quantification of HCC70 clusters after 6 days of IFNγ treatment. The class given is cell-based, human. The text has this:
FIG. 7A is a qPCR measurement of EPGN expression in HCC70 clusters. n=3 biological replicates. P-values=unpaired t-tests. […] P-values=unpaired t-tests. FIG. 7C is a quantification of individual lung metastasis areas (lungs three weeks after tail vein injection of 200,000 Ctrl-kd or Epgn-kd HCC70 clustered cells). n (# of metastases): Ctrl-kd=299, Epgn-kd=87. n (# of mice): 7 per condition. Box plot=5-95%. P-value=Mann-Whitney test. […] Line=non-linear regression. Band=95% CI. n=3 biological replicates. P-value=extra sum-of-squares F test. […] P-value=Mann-Whitney test. FIG. 7F is a quantification of internal FITC-streptavidin intensity biotin leak-in assay of HCC70 clusters after 6 days of treatment with or without 3 ng/mL IFNγ). n=60 untreated clusters, 70 IFNγ treated clusters. n=3 biological replicates. P-value=Mann-Whitney test. FIG. 7G is a TEM of HCC70 clusters after 6 days with and without IFNγ treatment (3 ng/mL). MP=microvilli-like protrusions. J=cell-cell junctions. FIG. 7H is a qPCR of (left) RAB25 and (right) CLDN7 in HCC70 clusters after 0, 3, and 6 days with and without 3 ng/mL IFNγ treatment. n=3 biological replicates. P-value=unpaired t-test. FIGS. 7I and 7J: HCC70 single cells were aggregated for 24 hrs then treated with or without 2 ng/mL IFNγ treatment. After 6 days of treatment, clusters from each condition were injected by tail vein into NSG mice, with 200,000 viable clustered cells injected per animal. 3 weeks later, lung metastases were scored by staining for the human-specific marker CD298. Sizes of individual HCC70 metastases at 3 weeks after tail vein injection. n=8 mice/condition, 217 untreated metastases, 79 IFNγ pre-treated metastases. Box plot=5-95%. P-value=Mann-Whitney test (7I). […]
Human cell lines were cultured in complete media (DMEM or RPMI with penicillin/streptomycin+10% FBS) on tissue-culture treated plates, or in non-adherent plates supplemented with 2% Matrigel (v/v). […] Human organoids were cultured with 2% (v/v) or 100% growth factor reduced Matrigel (Corning) with HuMEC Ready media (Fisher 12752010).

Test [5] deals with MDA-MB-231. The experiment in a line: Viable cell quantification of MDA-MB-231 after 6 days of IFNγ treatment. In kind it is cell-based, human. Particulars: MDA-MB-231, viable cells after 6 days of treatment.
The test system of test [6] is HCC70 clusters. The experiment in a line: TEM of HCC70 clusters with and without IFNγ. The class given is cell-based, human. To be noted: 6 days, 3 ng/mL.
Source text: as §2, with “t-test. FIGS. 7I and 7J: HCC70 single cells were aggregated for 24 hrs then treated with or without 2 ng/mL IFNγ treatment.” for “t-test.”

The test system of test [7] is MDA-MB-231. The experiment in a line: Biotin permeability of MDA-MB-231 clusters. The class given is cell-based, human. To be noted: MDA-MB-231, with or without treatment.
In test [8] the test system is HCC70 clusters. The test can be described thus: Biotin leak-in permeability assay of HCC70 clusters. The class given is cell-based, human. Particulars: 6 days, 3 ng/mL.
Source text: as §1, with “replicates.” for “replicates. P-value=Mann-Whitney test.”
Phalloidin staining and DAPI were used to define membrane and nuclear areas, respectively. Using the freehand line tool in FIJI software, lines along cell-matrix (outer membrane), cell-cell (intercellular) membranes, and intracellular (cytosolic) areas were drawn and median fluorescence intensity was measured for each channel. […] To assess biotin permeability in tumor vs. stroma areas, mean FITC-streptavidin signal was measured in FIJI in equally sized squares in adjacent pure tumor or pure stroma areas. […]

Where [9] appears, read: HCC70 tumor cell clusters, viable cells after 6 days of treatment.

B1: interferon gamma (protein, UniProt P01579 24-161, looked up)
Interferon gamma: QDPYVKEAENLKKYFNAGHSDVADNGTLFLGILKNWKEESDRKIMQSQIVSFYFKLFKNFKDDQSIQKSVETIKEDMNVKFFNSNKKKRDDFEKLTNYSVTDLNVQRKAIHELIQVMAELSPAAKTGKRKRSQMLFRG
notes: a cytokine FDA-approved for use in patients
Usually IC50 stands for the concentration needed to halve the response being measured. A higher IC50 goes with lower potency. As usually defined, the IC75 is the concentration at which the effect reaches the 75% level. Read a low IC75 as greater potency. As for B1, in the test on HCC70 clusters [1], the “number of lung metastases” value is on record as “fewer” and the “size of lung metastases” value is recorded as “significantly smaller”. In the test with HCC70 clusters [2], the “CLDN7 expression (qPCR)” value is on record as “significant reduction” and the “RAB25 expression (qPCR)” value is on record as “significant reduction”. In addition, in the test with HCC70 clusters [3], the cell death result was “not increased cell death”. In the test with HCC70 clusters [3] (6 days, 3 ng/mL), the “proliferation (% pHH3+ nuclei)” value is listed as “strong suppression of proliferation”. For the same molecule, in test [4] (HCC70 clusters), the outgrowth result is recorded as “markedly reduced outgrowth”. In test [4] (setting [9]), this molecule displayed an IC50 of 0.58 ng/mL and an IC75 of 0.97 ng/mL. In the test with MDA-MB-231 [5], this molecule came in with an IC50 of 4.24 ng/mL and an IC75 of 22.3 ng/mL. For the same molecule, the “microlumenal spacing and electron-dense junctions by TEM” value with HCC70 clusters [6] was “increased microlumenal spacing and decreased electron-dense junctions”. The biotin permeability result with MDA-MB-231 [7] was “highly biotin-permeable in both the absence or presence of IFNγ treatment”. The “intercellular permeability by biotin-leak assay” value in the test on HCC70 clusters [8] is on record as “increased intercellular permeability”.

Values taken from patent US20220257632A1, “MICROLUMENAL TARGETING OF CANCER CELLS” (Fred Hutchinson Cancer Research Center, priority 2019, published 2022).
